# Square brackets hold non-standard residues; d marks the D form. * marks the point of attachment. Heptanoyl = CCCCCCC(=O)*; Hexanoyl = CCCCCC(=O)*; Propionyl = CCC(=O)*; Butyryl = CCCC(=O)*
# B1: IV-15-A Butryl-RYYRWR-NH2 (peptide)
# peptide: Butyryl-RYYRWR-NH2
# SMILES: CCCC(=O)N[C@@H](CCCNC(=N)N)C(=O)N[C@@H](Cc1ccc(O)cc1)C(=O)N[C@@H](Cc1ccc(O)cc1)C(=O)N[C@@H](CCCNC(=N)N)C(=O)N[C@@H](Cc1c[nH]c2ccccc12)C(=O)N[C@@H](CCCNC(=N)N)C(N)=O
# B2: IV-18-C Heptanoyl-RYYRWR-NH2 (peptide)
# peptide: Heptanoyl-RYYRWR-NH2
# SMILES: CCCCCCC(=O)N[C@@H](CCCNC(=N)N)C(=O)N[C@@H](Cc1ccc(O)cc1)C(=O)N[C@@H](Cc1ccc(O)cc1)C(=O)N[C@@H](CCCNC(=N)N)C(=O)N[C@@H](Cc1c[nH]c2ccccc12)C(=O)N[C@@H](CCCNC(=N)N)C(N)=O
# notes: see recheck
# B3: IV-12-B Ac-RY(D)YR(D)WNH2 (peptide)
# peptide: Ac-R[dY]Y[dR]WR-NH2
# notes: It is not clear from the print which residues the (D) marks belong to, nor whether the last Arg is missing on purpose
# B4: IV-17-C Hexanoyl-RYYRWR-NH2 (peptide)
# peptide: Hexanoyl-RYYRWR-NH2
# SMILES: CCCCCC(=O)N[C@@H](CCCNC(=N)N)C(=O)N[C@@H](Cc1ccc(O)cc1)C(=O)N[C@@H](Cc1ccc(O)cc1)C(=O)N[C@@H](CCCNC(=N)N)C(=O)N[C@@H](Cc1c[nH]c2ccccc12)C(=O)N[C@@H](CCCNC(=N)N)C(N)=O
# B5: IV-16-C Propionyl-RYYRWR-NH2 (peptide)
# peptide: Propionyl-RYYRWR-NH2
# SMILES: CCC(=O)N[C@@H](CCCNC(=N)N)C(=O)N[C@@H](Cc1ccc(O)cc1)C(=O)N[C@@H](Cc1ccc(O)cc1)C(=O)N[C@@H](CCCNC(=N)N)C(=O)N[C@@H](Cc1c[nH]c2ccccc12)C(=O)N[C@@H](CCCNC(=N)N)C(N)=O
# notes: see recheck
# B6: IV-43-B Hexanoyl-RYYRWA-NH2 (peptide)
# peptide: Hexanoyl-RYYRWA-NH2
# SMILES: CCCCCC(=O)N[C@@H](CCCNC(=N)N)C(=O)N[C@@H](Cc1ccc(O)cc1)C(=O)N[C@@H](Cc1ccc(O)cc1)C(=O)N[C@@H](CCCNC(=N)N)C(=O)N[C@@H](Cc1c[nH]c2ccccc12)C(=O)N[C@@H](C)C(N)=O
# B7: IV-41-B Hexanoyl-RYYRAR-NH2 (peptide)
# peptide: Hexanoyl-RYYRAR-NH2
# SMILES: CCCCCC(=O)N[C@@H](CCCNC(=N)N)C(=O)N[C@@H](Cc1ccc(O)cc1)C(=O)N[C@@H](Cc1ccc(O)cc1)C(=O)N[C@@H](CCCNC(=N)N)C(=O)N[C@@H](C)C(=O)N[C@@H](CCCNC(=N)N)C(N)=O
# B8: IV-39-B Hexanoyl-RYYAWR-NH2 (peptide)
# peptide: Hexanoyl-RYYAWR-NH2
# SMILES: CCCCCC(=O)N[C@@H](CCCNC(=N)N)C(=O)N[C@@H](Cc1ccc(O)cc1)C(=O)N[C@@H](Cc1ccc(O)cc1)C(=O)N[C@@H](C)C(=O)N[C@@H](Cc1c[nH]c2ccccc12)C(=O)N[C@@H](CCCNC(=N)N)C(N)=O
# B9: IV-37-B Hexanoyl-RYARWR-NH2 (peptide)
# peptide: Hexanoyl-RYARWR-NH2
# SMILES: CCCCCC(=O)N[C@@H](CCCNC(=N)N)C(=O)N[C@@H](Cc1ccc(O)cc1)C(=O)N[C@@H](C)C(=O)N[C@@H](CCCNC(=N)N)C(=O)N[C@@H](Cc1c[nH]c2ccccc12)C(=O)N[C@@H](CCCNC(=N)N)C(N)=O
# Molecular target: T1, human ORL-1 receptor (opioid receptor like 1) (human, UniProt P41146 1-370)
# T1 construct: whole, on cells; Assays were run on membranes of CHO cells transfected with human ORL-1; also called opiate receptor like 1; nociceptin receptor
# T1 sequence (P41146 whole entry): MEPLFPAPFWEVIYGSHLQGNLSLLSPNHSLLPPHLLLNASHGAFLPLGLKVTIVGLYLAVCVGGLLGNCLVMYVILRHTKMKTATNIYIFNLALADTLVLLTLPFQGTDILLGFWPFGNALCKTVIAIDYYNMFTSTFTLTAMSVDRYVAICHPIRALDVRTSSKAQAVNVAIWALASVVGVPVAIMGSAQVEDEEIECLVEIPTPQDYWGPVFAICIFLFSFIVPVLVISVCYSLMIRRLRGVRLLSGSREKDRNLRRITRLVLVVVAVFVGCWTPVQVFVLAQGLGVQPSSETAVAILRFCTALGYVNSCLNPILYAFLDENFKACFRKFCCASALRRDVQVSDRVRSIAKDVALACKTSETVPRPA
# Experiment: [3H]nociceptin displacement at ORL1
row,Binder,IC50 [nM]
1,B1,4.3
2,Ac-RYYRWR-NH2 (also called parent peptide) [Ac-RYYRWR-NH2],0.72
3,B2,2.6
4,B3,1140
5,B4,2.6
6,B5,1.2

# Molecular target: T1, human ORL-1 receptor (opioid receptor …)
# Experiment: cell-based or functional assay
Binder,[^35S]GTPγS Binding EC50 [nM],[^35S]GTPγS Binding Percent Stimulation [%]
B1,35.3,63
Ac-RYYRWR-NH2 (also called parent peptide) [Ac-RYYRWR-NH2],1.2,100
B2,16.9,54
B3,> 10000,< 10
B4,,18
B5,22.3,82

# Molecular target: T1, human ORL-1 receptor (opioid receptor …)
# Experiment: binding assay at ORL1 (taken as [3H]nociceptin displacement as in Table 1)
row,Binder,IC50 [nM]
1,B6,311
2,B7,710
3,B8,1000
4,B9,79

# From patent US20030166571A1 (SYNVAX, published 2003)
